Experimental data as given in the nanobody polyreactivity screen of Harvey et al. (2022).

Test: yeast display, Sf9 membrane polyspecificity reagent, FACS + sequencing; frameworks hold sequencing errors
Method in brief: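 Nanobodies came from a synthetic yeast display library in Saccharomyces cerevisiae BJ5465, induced with galactose for 36–48 hours and stained for 1 hour at 4 °C with 10% biotinylated, detergent-solubilized Sf9 membrane reagent. Cells were enriched on streptavidin microbeads and then FACS-sorted, with low and high (top ~1%) gates set on anti-HA fluorescence for expression and streptavidin fluorescence for reagent binding. Each polyreactivity label reflects the gate a clone came from. Genes were amplified by colony PCR, sequenced by MiSeq 2 × 250 and filtered by CDR length.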

Sequence	polyreactivity (PSR sort gate)
QVQLVESGGGLVQAGGSLRLSCAASGFIFYYYTMGWYRPAPGKERELVAAISRGGGSTYYADSVKGRFTISRDNAKNTVYLQMNSLKPEDTAVYYCALTDRRLGAHQGDYWGQGTQVTVSS	high polyreactivity
QVQLVESGGGLVQAGGSLRLSCAASGFIIARNAMGWYRQAPGKERELVAAISASGGRTYYADSVKGRFTISRDNAKNTVYLKKNSLKPEDTAVYYCAAAVLRYALRFDYWGQGTQVTVSS	high polyreactivity
QVQLVESGGGLVQAGGSLRLSCAASGFIIGSYTMGWYRQAPGKERELVASITKRGGSTYYADSVKGRFTISRDNAKNTVYFQMNSLKPEDTAVYYCAATYWFSHRSRYDYWGQGTQVTVSS	high polyreactivity
QVQLVESGGGLVQAGGSLRLSCAASGFIIHRYAMGWYRQAPGKERELVAVITSGGGSTYYADSVKGRFTISRDNAKNTVYLQMNSLKPEDTAVYYCAAYQPYNSRYRYDYWGQGTQVTVSS	high polyreactivity
QVQLVESGGGLVQAGGSLRLSCAASGFIIKFYAMGWYRQAPGKERELVATITFSSGTTYYADSVKGRFTISRDNAKNTVYLQMNSLKPEDTAVYYCAASTLPAWPYDGPAGPRYDYWGQGTQVTVSS	low polyreactivity
QVQLVESGGGLVQAGGSLRLSCAASGFIIQYYAMGWYRQAPGKERELVAVIRSGGSTYYADSVKGRFTISRDNAKNTVFFQMNSLKPEDTAVYYCIARRTYLDRYNYWGQGTQVTVSS	high polyreactivity
QVQLVESGGGLVQAGGSLRLSCAASGFIIRSYAMGWYRQAPGKERELLAAISSRGGSTYYADSVKGRFTISRDNANNTVYLQINSLKPEDTAVYYCAADWKSKRTDKYDSWGQGTQVTVSS	high polyreactivity
QVQLVESGGGLVQAGGSLRLSCAASGFIIRTYAMGWYRQAPGKERELVAAITGRGGTTYYADSVKGRFTISRDNAKNTVDLQMNSLKPEDTAVYYCAARSRDYNYNPYDYWGQGTQVTVSS	high polyreactivity
QVQLVESGGGLVQAGGSLRLSCAASGFIITSNAMGWYRQAPGKERELVAAITWSGGRTYYADSVKGRFTISRDNAKNTVYLQMNSLKPEDTAVYYCAAGYYKGFTLVRVIFDYWGHGTQVTVSS	low polyreactivity
QVQLVESGGGLVQAGGSLRLSCAASGFIITTYAMGWYRQAPGKERELVAGISSSGGRTYADSVKGRFTISRDNAKNTVYLQMNSLKPEDTAVYYCAREQWRTLVQTDKYKYDYWGQGTQVTVSS	high polyreactivity
QVQLVESGGGLVQAGGSLRLSCAASGFIIWYSAMGWYRQAPGKERELVAAIRSGGSTYYADSVKGRFTISRDNAMNTVYLQMNSLKPEDTAVYYCAAGKNVYYFSRSKYGYDYWGQGTQVTVSS	high polyreactivity
QVQLVESGGGLVQAGGSLRLSCAASGFIIYGYVMGWYRQAPGKERELVAAINSSSGRTYYADSVKGRFTISRDNAKNTVYLQMNSLKPEDTAVYYCAAYYYGSYDGTPYDYRGQGTQVTVSS	low polyreactivity
QVQLVESGGGLVQAGGSLRLSCAASGFIIYRYAMGWYRQAPGKEWELVAAISKRGGSTYYADSVKGRFTISRDNAKNTVYLQMNSLKPEDTAVYYCAANRSYVDSTSFGKAYGYWGQGTQVTVSS	high polyreactivity
QVQLVESGGGLVQAGGSLRLSCAASGFILARYAMGWYRQAPGKERELVAVISSGGSSTFYADSVKGRFTISRDNAKNTVYLQMKSLKPEDTAVYYCAARYKSSKKVGFDYWGQGTQVTVSS	high polyreactivity
QVQLVESGGGLVQAGGSLRLSCAASGFILDNYAMGWYRQAPGKERELVAAISGSGGSTYYADSVKGRFTISRDNAKNTVYLQMNSLKPEDTAVYYCNRDRLLRQYDYWGQGTQVTVSS	high polyreactivity
QVQLVESGGGLVQAGGSLRLSCAASGFILERYAMGWYRQAPGKERELVAAISSVGNTNYADSVKGRFTITRDNAKNTVYLQMNSLKPEDTAVYYCAAEGAFPIYDYWGQGTQVTVSS	low polyreactivity

Sequence	polyreactivity (PSR sort gate)
QVQLVESGGGLVQAGGSLRLSCAASGFILFPYAMGWYRQAPGKERELVAAIRSDDTTYYADSVKGRFTISRDNAKNTVYLQMNSLKPEDTAVYYCNAARTRWATGYDYWGQGTQVTVSS	low polyreactivity
QVQLVESGGGLVQAGGSLRLSCAASGFILGGYAMGWYRQAPGKERELVAAISWSSGSTYYADSVKGRFTISRDNAKNTVYLQMNSLKPEDTAVYYCAAVGAYDYWGQGTQVSVSS	low polyreactivity
QVQLVESGGGLVQAGGSLRLSCAASGFILGHNAMGWYRQAPGKERELVSAITWRGRTYYADSVKGRFTISRDNAKNTVYLHMNSLKPEDTAVYYCASDTKFCYGYWGQGTQVTVSS	high polyreactivity
QVQLVESGGGLVQAGGSLRLSCAASGFILGLNALGWYRHAPGKAWEFVADISWSGDSTYYADSVKGRFTISRDNAKNTVYLQMNSRKPEDTAVYYCPAVWYTSRQKYDYWGQGTQGTVSS	low polyreactivity
QVQLVESGGGLVQAGGSLRLSCAASGFILGSNAMGWYRQAPGKERELVAAISRSGGSTYYADSVKGRFTISRDNAKNTVYLQMNSLKPEDTAVYYCNRVASVRARDYDYWGQGTQVTVSS	high polyreactivity
QVQLVESGGGLVQAGGSLRLSCAASGFILGSNVMGWYRQAPGKERELVAAISYSGGSTYYADSVKGRFTISRDNAKNTVYLQMNSLKPEDTAVYYCARRLTREYDYWGQGSQVTVSS	low polyreactivity
QVQLVESGGGLVQAGGSLRLSCAASGFILGYYAMGWYRQAPGKERELVAAISWNGGRTYYADSVKGRFTISRDNAKNTVYLQMNSLKPEDTAVYYCAVVATVIPWPYDYWGQGTQVTVSS	high polyreactivity
QVQLVESGGGLVQAGGSLRLSCAASGFILIQYAMGWYRQAPGKERELVAAITWSDTSTNYADSVKGRFTISRDNAKNTVYLQMNSLKPEDTAVYYCAAYPVRYYNQYDYWGQGTQVTVSS	low polyreactivity
QVQLVESGGGLVQAGGSLRLSCAASGFILPHYTMGWYRQAPGKERELVAAITSGVSTYYADSVKGRFTISRDNAKNTVYLQMNSLKPEDTAVYYCNALATYIGYKYDYWGQGTQVTVSS	low polyreactivity
QVQLVESGGGLVQAGGSLRLSCAASGFILPIYAMGWYRQAPGKEREFVAAITWTGGSTYYADSVKGRFTISRDNANNTVYLQMNSLKPEDTAVYYCNAEGRSYYYIIYDFWGQGTQVTVSS	high polyreactivity
QVQLVESGGGLVQAGGSLRLSCAASGFILPNYAMGWYRQAPGKERELVAASTYIGGSTYYADSVKGRFTISRDNAKHTVYLQMNSLKPEDTAVYYCAKYWLGYTKYDYWGQGTQVTVSS	low polyreactivity
QVQLVESGGGLVQAGGSLRLSCAASGFILPNYAMGWYRQATGKERELVDAITYIGGSTYYADSVKGRFTISRDNAKNTVYLHMNSLKPEDTAVYYCAKYWLGYTKFDYWGQGTQVTVSS	low polyreactivity
QVQLVESGGGLVQAGGSLRLSCAASGFILPVYAMGWYRQAPGTERELVAAISSGGSTNYADSVKGRFTISRDNAKNTVYLQMNSLKPEDTEVYYCNKVDWYFGGYKYDYWGQGTQVTVSS	low polyreactivity
QVQLVESGGGLVQAGGSLRLSCAASGFILRAYAIGWYRQAPGKERELVAAITSATSTNYADSVKGRFTISRDNAKNTVYLQMNSLKPEDTAVYYCAADGGGGEFSYDSWGQGTQVTVSS	low polyreactivity
QVQLVESGGGLVQAGGSLRLSCAASGFILRYNAMGWYRQAPGKEREFVAAITRGATTTYADSVKGRFTISRDNAKNTVYLQMNRLKPEDTAVYYCAKRYHGYISQGQLWERIYDYWGQGTQVTVSS	low polyreactivity
QVQLVESGGGLVQAGGSLRLSCAASGFILSHYVMGWYRPAPGKERELVATIRNVGSTKYADSVKGRFTISRDNAKNTVYLQMNSLKPEDTAVYYCNARRWEGYYEFNYWGQGTQVTVSS	low polyreactivity
